Consider eight molecules from publication PMC7083938, “NELL2-Robo3 complex structure reveals mechanisms of receptor activation for axon guidance” (Nature Communications, 2020).

Data set [1] concerns the target T1, mRobo3 FN1-3 (mouse, biotin on the Avi-tag (BirA) for SPR).
T1 construct: also called Robo3FN1-3 (Polyhedrin, mouse); source: High Five cells (baculovirus), purified (Ni-NTA, SEC); biotinylated with BirA for SPR; not shown: His6, C-terminal, kept
Kind of data set: SPR; biotinylated mRobo3 FN1-3 on a Biacore SA chip; mNELL2 EGF1-6 WT and mutants as analytes over the same channel; 20 s 10 mM EDTA pH 8, 150 mM NaCl between runs; 25 °C, 10 mM HEPES pH 7.2, 150 mM NaCl, 0.05% Tween-20, 0.1% BSA; equilibrium, 1:1 Langmuir. Particulars: both partners purified. (In general: In SPR one partner is held on a chip, and binding of the other changes the refractive index at the surface.)

Data set [2] deals with the molecule itself. Briefly: AUC; sedimentation velocity, concentration series (mRobo3 0.6-20 µM at 200,000 g; mRobo1 0.9-9.8 µM at 140,000 g), 20 °C, c(s) analysis.
Data set [3] addresses T2, hRobo3 FN1-3, biotinylated (wild type) (human, UniProt Q96MS0 549-870, biotin on the Avi-tag (BirA)).
T2 construct: human Robo3, FN domains 1-3, P549-L870; also called WT hRobo3 FN; Robo3FN1-3 WT; source: High Five cells (baculovirus), purified (Ni-NTA, SEC), biotinylated with BirA
T2 sequence (looked up): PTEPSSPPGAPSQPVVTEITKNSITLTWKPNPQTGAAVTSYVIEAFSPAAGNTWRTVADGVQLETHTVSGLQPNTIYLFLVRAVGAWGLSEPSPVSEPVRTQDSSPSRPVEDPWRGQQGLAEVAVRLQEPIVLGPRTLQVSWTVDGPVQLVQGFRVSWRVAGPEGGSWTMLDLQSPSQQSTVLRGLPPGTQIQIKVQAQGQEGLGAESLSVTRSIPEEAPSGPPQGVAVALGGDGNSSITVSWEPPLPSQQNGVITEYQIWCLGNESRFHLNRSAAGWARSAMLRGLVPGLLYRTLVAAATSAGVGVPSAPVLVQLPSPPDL
Kind of data set: SPR; biotinylated hRobo3 FN1-3 on an NLC/neutravidin chip, ProteOn XPR36; hNELL2 EGF1-6 as analyte; 25 °C, 10 mM HEPES pH 7.2, 150 mM NaCl, 0.05% Tween-20, 0.1% BSA; equilibrium responses, 1:1 Langmuir. The conditions noted are these: both partners purified.

Data set [4] concerns the molecule itself. Kind of data set: SEC-MALS; Wyatt HELEOS II coupled to an AKTA FPLC, Superose Increase 6 10/300, HBS; Zimm model. (Size exclusion chromatography separates by hydrodynamic size, large species first.)
Data set [5] concerns the molecule itself. Briefly: SEC-SAXS; Superose 6 Increase 10/300 in HBS at APS BioCAT beamline 18; molecular weight from the scattering.
Data set [6] addresses T2, hRobo3 FN1-3, biotinylated (wild type). Briefly: SPR; as a6 but with additional 10 mM EDTA in all buffers. The conditions noted are these: both partners purified.
Data set [7] has the same target. Kind of data set: SPR; biotinylated hRobo3 FN1-3 on an SA chip, Biacore 3000; hNELL1 EGF1-3 or hNELL2 EGF1-3 as analyte; equilibrium isotherms. Particulars: both partners purified.

B1: mNELL2 EGF1-6 L498A/F500A (domain or fragment)
chain: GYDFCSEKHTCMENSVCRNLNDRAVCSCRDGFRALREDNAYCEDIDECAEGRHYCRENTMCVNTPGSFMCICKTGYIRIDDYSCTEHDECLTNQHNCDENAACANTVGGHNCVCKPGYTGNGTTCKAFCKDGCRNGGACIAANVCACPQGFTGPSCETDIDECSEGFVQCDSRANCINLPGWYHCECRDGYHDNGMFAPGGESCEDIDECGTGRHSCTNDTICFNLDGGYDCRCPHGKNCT
In the case of B1, in data set [1], the Kd (as a rule, the equilibrium constant for the complex coming apart) is at least 100000 nM.

B2: mRobo1 ectodomain (domain or fragment, mouse, UniProt O89026 30-840, looked up)
chain: RIVEHPSDLIVSKGEPATLNCKAEGRPTPTIEWYKGGERVETDKDDPRSHRMLLPSGSLFFLRIVHGRKSRPDEGVYICVARNYLGEAVSHNASLEVAILRDDFRQNPSDVMVAVGEPAVMECQPPRGHPEPTISWKKDGSPLDDKDERITIRGGKLMITYTRKSDAGKYVCVGTNMVGERESEVAELTVLERPSFVKRPSNLAVTVDDSAEFKCEARGDPVPTVRWRKDDGELPKSRYEIRDDHTLKIRKVTAGDMGSYTCVAENMVGKAEASATLTVQEPPHFVVKPRDQVVALGRTVTFQCEATGNPQPAIFWRREGSQNLLFSYQPPQSSSRFSVSQTGDLTITNVQRSDVGYYICQTLNVAGSIITKAYLEVTDVIADRPPPVIRQGPVNQTVAVDGTLILSCVATGSPAPTILWRKDGVLVSTQDSRIKQLESGVLQIRYAKLGDTGRYTCTASTPSGEATWSAYIEVQEFGVPVQPPRPTDPNLIPSAPSKPEVTDVSKNTVTLSWQPNLNSGATPTSYIIEAFSHASGSSWQTAAENVKTETFAIKGLKPNAIYLFLVRAANAYGISDPSQISDPVKTQDVPPTSQGVDHKQVQRELGNVVLHLHNPTILSSSSVEVHWTVDQQSQYIQGYKILYRPSGASHGESEWLVFEVRTPTKNSVVIPDLRKGVNYEIKARPFFNEFQGADSEIKFAKTLEEAPSAPPRSVTVSKNDGNGTAILVTWQPPPEDTQNGMVQEYKVWCLGNETKYHINKTVDGSTFSVVIPSLVPGIRYSVEVAASTGAGPGVKSEPQFIQLDSHGNPVS
notes: mouse Robo1, extracellular domain, R30-S840; C-terminal Avi and His; also called mRobo1 ECD; Robo1ECD; source: High Five cells (baculovirus), purified (Ni-NTA, SEC)
As to B2, the stoichiometry N (in general, the number of molecules, sites or subunits per partner or assembly) in data set [2] worked out at 2.

B3: hNELL2 EGF1-6 (His-tagged) (domain or fragment)
chain: not shown
notes: human NELL2, EGF domains 1-6, G397-T637; also called NELL2EGF1-6 (Polyhedrin, human); source: High Five cells (baculovirus), purified (Ni-NTA, SEC)
In turn, B3 displayed a dissociation constant Kd in data set [3] of 579 nM.

B4: mouse NELL1 (ligand, UniProt Q2VWQ2 22-810, looked up)
chain: FGMDPDLQMDIITELDLVNTTLGVTQVAGLHNASKAFLFQDVQREIHSAPHVSEKLIQLFRNKSEFTFLATVQQKPSTSGVILSIRELEHSYFELESSGPREEIRYHYIHGGKPRTEALPYRMADGQWHKVALSVSASHLLLHVDCNRIYERVIDPPETNLPPGSNLWLGQRNQKHGFFKGIIQDGKIIFMPNGFITQCPNLNRTCPTCSDFLSLVQGIMDLQELLAKMTAKLNYAETRLGQLENCHCEKTCQVSGLLYRDQDSWVDGDNCRNCTCKSGAVECRRMSCPPLNCSPDSLPVHISGQCCKVCRPKCIYGGKVLAEGQRILTKTCRECRGGVLVKITEACPPLNCSEKDHILPENQCCRVCRGHNFCAEAPKCGENSECKNWNTKATCECKNGYISVQGNSAYCEDIDECAAKMHYCHANTVCVNLPGLYRCDCIPGYIRVDDFSCTEHDDCGSGQHNCDKNAICTNTVQGHSCTCQPGYVGNGTVCKAFCEEGCRYGGTCVAPNKCVCPSGFTGSHCEKDIDECAEGFVECHNHSRCVNLPGWYHCECRSGFHDDGTYSLSGESCIDIDECALRTHTCWNDSACINLAGGFDCLCPSGPSCSGDCPHEGGLKHNGQVWILREDRCSVCSCKDGKIFCRRTACDCQNPNVDLFCCPECDTRVTSQCLDQSGQKLYRSGDNWTHSCQQCRCLEGEADCWPLACPSLSCEYTAIFEGECCPRCVSDPCLADNIAYDIRKTCLDSSGISRLSGAVWTMAGSPCTTCQCKNGRVCCSVDLVCLENN
notes: NELL1, mouse; the methods say that mature domains were cloned into pAcGP67A; Trimer by MALS; also called mNELL1; source: High Five cells (baculovirus), secreted, purified (Ni-NTA, SEC)
Regarding B4, the “stoichiometry N” value in data set [4] stood at 3.

B5: hNELL2 (full length) (ligand, human, UniProt Q99435 22-816, looked up)
chain: LGVDPSLQIDVLTELELGESTTGVRQVPGLHNGTKAFLFQDTPRSIKASTATAEQFFQKLRNKHEFTILVTLKQTHLNSGVILSIHHLDHRYLELESSGHRNEVRLHYRSGSHRPHTEVFPYILADDKWHKLSLAISASHLILHIDCNKIYERVVEKPSTDLPLGTTFWLGQRNNAHGYFKGIMQDVQLLVMPQGFIAQCPDLNRTCPTCNDFHGLVQKIMELQDILAKTSAKLSRAEQRMNRLDQCYCERTCTMKGTTYREFESWIDGCKNCTCLNGTIQCETLICPNPDCPLKSALAYVDGKCCKECKSICQFQGRTYFEGERNTVYSSSGVCVLYECKDQTMKLVESSGCPALDCPESHQITLSHSCCKVCKGYDFCSERHNCMENSICRNLNDRAVCSCRDGFRALREDNAYCEDIDECAEGRHYCRENTMCVNTPGSFMCICKTGYIRIDDYSCTEHDECITNQHNCDENALCFNTVGGHNCVCKPGYTGNGTTCKAFCKDGCRNGGACIAANVCACPQGFTGPSCETDIDECSDGFVQCDSRANCINLPGWYHCECRDGYHDNGMFSPSGESCEDIDECGTGRHSCANDTICFNLDGGYDCRCPHGKNCTGDCIHDGKVKHNGQIWVLENDRCSVCSCQNGFVMCRRMVCDCENPTVDLFCCPECDPRLSSQCLHQNGETLYNSGDTWVQNCQQCRCLQGEVDCWPLPCPDVECEFSILPENECCPRCVTDPCQADTIRNDITKTCLDEMNVVRFTGSSWIKHGTECTLCQCKNGHICCSVDPQCLQEL
notes: human NELL2, L22-L816; trimer by SAXS; also called NELL2FL (Polyhedrin, human); source: High Five cells (baculovirus), purified (Ni-NTA, SEC)
On to B5, for which the “stoichiometry N” value in data set [5] amounted to 3.

B6: full-length human NELL2 (ligand, UniProt Q99435 22-816, looked up)
chain: LGVDPSLQIDVLTELELGESTTGVRQVPGLHNGTKAFLFQDTPRSIKASTATAEQFFQKLRNKHEFTILVTLKQTHLNSGVILSIHHLDHRYLELESSGHRNEVRLHYRSGSHRPHTEVFPYILADDKWHKLSLAISASHLILHIDCNKIYERVVEKPSTDLPLGTTFWLGQRNNAHGYFKGIMQDVQLLVMPQGFIAQCPDLNRTCPTCNDFHGLVQKIMELQDILAKTSAKLSRAEQRMNRLDQCYCERTCTMKGTTYREFESWIDGCKNCTCLNGTIQCETLICPNPDCPLKSALAYVDGKCCKECKSICQFQGRTYFEGERNTVYSSSGVCVLYECKDQTMKLVESSGCPALDCPESHQITLSHSCCKVCKGYDFCSERHNCMENSICRNLNDRAVCSCRDGFRALREDNAYCEDIDECAEGRHYCRENTMCVNTPGSFMCICKTGYIRIDDYSCTEHDECITNQHNCDENALCFNTVGGHNCVCKPGYTGNGTTCKAFCKDGCRNGGACIAANVCACPQGFTGPSCETDIDECSDGFVQCDSRANCINLPGWYHCECRDGYHDNGMFSPSGESCEDIDECGTGRHSCANDTICFNLDGGYDCRCPHGKNCTGDCIHDGKVKHNGQIWVLENDRCSVCSCQNGFVMCRRMVCDCENPTVDLFCCPECDPRLSSQCLHQNGETLYNSGDTWVQNCQQCRCLQGEVDCWPLPCPDVECEFSILPENECCPRCVTDPCQADTIRNDITKTCLDEMNVVRFTGSSWIKHGTECTLCQCKNGHICCSVDPQCLQEL
notes: NELL2, human; called full-length; the methods say that mature domains were cloned into pAcGP67A; Trimer by MALS and SAXS; also called hNELL2; full-length hNELL2; source: High Five cells (baculovirus), secreted, purified (Ni-NTA, SEC)
Turning to B6, the “stoichiometry N” value in data set [4] came out at 3.

B7: hNELL1 EGF1-3 (domain or fragment, human, UniProt Q92832 390-517, looked up)
chain: RGHNFCAEGPKCGENSECKNWNTKATCECKSGYISVQGDSAYCEDIDECAAKMHYCHANTVCVNLPGLYRCDCVPGYIRVDDFSCTEHDECGSGQHNCDENAICTNTVQGHSCTCKPGYVGNGTICRA
notes: human NELL1, EGF domains 1-3, R390-A517; also called NELL1EGF1-3 (Polyhedrin, human); source: High Five cells (baculovirus), purified (Ni-NTA, SEC)
For the molecule B7, the dissociation constant Kd in data set [6] came to 2710 nM; in data set [7], 460 nM.

B8: mNELL2 EGF1-6 D477A/Y478A (domain or fragment)
chain: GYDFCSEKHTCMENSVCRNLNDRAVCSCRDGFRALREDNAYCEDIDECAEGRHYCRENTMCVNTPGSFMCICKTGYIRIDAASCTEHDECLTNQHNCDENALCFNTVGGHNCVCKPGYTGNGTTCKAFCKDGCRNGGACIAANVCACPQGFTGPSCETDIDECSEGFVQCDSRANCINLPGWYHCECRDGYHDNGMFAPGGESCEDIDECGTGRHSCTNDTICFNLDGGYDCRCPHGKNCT
With B8, the Kd in data set [1] was at least 100000 nM.
